{
  "source": "patent US20140220017A1",
  "about": "(published 2014)",
  "key": {"mouse IgG [1]": {"biological_target": "mouse IgG (mouse)", "assay": "QCM; pH 6"}, "human IgG Fc [2]": {"biological_target": "human IgG Fc (human)", "assay": "QCM; pH 6"}, "mouse IgG Fab [3]": {"biological_target": "mouse IgG Fab (mouse)", "assay": "QCM; pH 6"}, "human IgG [4]": {"biological_target": "human IgG (human)", "assay": "QCM; pH 6"}, "human IgG Fab [5]": {"biological_target": "human IgG Fab (human)", "assay": "QCM; pH 6"}, "mouse IgG Fc": {"biological_target": "mouse IgG Fc (mouse)", "assay": "QCM; pH 7.4"}, "mouse IgG [6]": {"biological_target": "mouse IgG (mouse)", "assay": "QCM; pH 7.4"}, "human IgG Fc [7]": {"biological_target": "human IgG Fc (human)", "assay": "QCM; pH 7.4"}, "mouse IgG Fab [8]": {"biological_target": "mouse IgG Fab (mouse)", "assay": "QCM; pH 7.4"}, "human IgG [9]": {"biological_target": "human IgG (human)", "assay": "QCM; pH 7.4"}, "human IgG Fab [10]": {"biological_target": "human IgG Fab (human)", "assay": "QCM; pH 7.4"}},
  "data": [
    {"binder": "SpGC3 (other) DAAQPAMAQVKLQQSGAELVRSGTSVKLSCTASGFNIKDSYMHWLRQGPEQGLEWIGWIDPENGDTEYAPKFQGKATFTTDTSSNTAYLQLSSLTSEDTAVYYCNEGTPTGPYYFDYWGQGTTVTVSSGGGGSDIQMTQSPSSLSASVGDRVTITCRASQDIRNYLNWYQQKPGKAPKLLIYYTSRLESGVPSRFSGSGSGTDYTLTISSLQPEDFATYYCQQGNTLPWTFGQGTKVEIKRGGGGSGGRASGGGGSEVQLVESGGGLVQPGGSLRLSCAASGYSFTGYTMNWVRQAPGKGLEWVALINPYKGVSTYNQKFKDRFTISVDKSKNTAYLQMNSLRAEDTAVYYCARSGYYGDSDWYFDVWGQGTLVTVSSGGGGSDIELTQSPAIMSASPGEKVTITCSASSSVSYMHWFQQKPGTSPKLWIYSTSNLASGVPARFSGSGSGTSYSLTISRMEAEDAATYYCQQRSSYPLTFGAGTKLELKRAAAGGSGGTTYKLVINGKTLKGETTTKAVDAETAEKAFKQYANDNGVDGVWTYDDATKTFTVTEGGSHHHHHH", "values": [
      {"measurement": "Kd", "setting": "mouse IgG [1]", "result": 46, "unit": "nM"},
      {"measurement": "Kd", "setting": "human IgG Fc [2]", "result": 3.6, "unit": "nM"},
      {"measurement": "Kd", "setting": "mouse IgG Fab [3]", "result": 190, "unit": "nM"},
      {"measurement": "Kd", "setting": "human IgG [4]", "result": 5, "unit": "nM"},
      {"measurement": "Kd", "setting": "human IgG Fab [5]", "result": 150, "unit": "nM"},
      {"measurement": "Kd", "setting": "mouse IgG Fc", "result": 24, "unit": "nM"},
      {"measurement": "Kd", "setting": "mouse IgG [6]", "result": 58, "unit": "nM"},
      {"measurement": "Kd", "setting": "human IgG Fc [7]", "result": 10, "unit": "nM"},
      {"measurement": "Kd", "setting": "mouse IgG Fab [8]", "result": 190, "unit": "nM"},
      {"measurement": "Kd", "setting": "human IgG [9]", "result": 6, "unit": "nM"},
      {"measurement": "Kd", "setting": "human IgG Fab [10]", "result": 190, "unit": "nM"}
    ]}
  ]
}
